Broadly, the Km is the concentration of substrate that gives half-maximal velocity. By Vmax is commonly meant the rate approached at saturating substrate. By kcat is commonly meant the number of substrate molecules converted per active site and unit of time at saturation. Broadly, the kcat/Km is the turnover number divided by the Michaelis constant.

Substrate in series [1]: O=CCO
Kind of series: purified protein. It counts as biochemical, Thermotoga maritima. The following applies: apparent, LiHPA constant at 50 mM, ThDP 2.4 mM, MgCl2 9 mM, TEA 2 mM pH 7, 65 °C.

Substrate in series [2]: O=C(O)C(=O)CO
Description: purified protein. The following applies: apparent, GA constant at 50 mM, ThDP 2.4 mM, MgCl2 9 mM, TEA 2 mM pH 7, 65 °C.

B1: TKtmar (Thermotoga maritima MSB8) (protein)
chain: MERFPYEKLPESELKELKELGRLCRGDILKMTYIANSGHPGGSMSSIDLYLTVFKYAKLRPVDDPARDRIVISHGHTSPGVYAAMARLGFVDLDEVLAGFRHPASVFEGHVTRGVGIIDWTTGNLGQGLSAGLGFALASRFTGKDYHVFVLMSDAEQAKGQVAEARRVAKKYGVTNLTVIIDYNDAQISGRARDVMPVNIKENYLADGWRVIEIDGHDYEQIYLALKEAVEDELNPVAIIAKTVMGKGVSFMENEVKYHGKPLNREELEKALAELGIENDVDVYIEKRKQLPVEKHKKVYKTYPIKIDTGEPITYTSPTDNRSAFGKAILDLVKKNVNNPETTPIVAVDCDLKGSVKLDLLDKEFPERLLEVGVQEHNAAAMAGALSAEGVITFFADFGVFGISETYNQHRLNAINGTNLKVVVTHCGLNVGEDGKTHHGLDYVSGPMNWYGFKVIVPGDPNQTDRVVRYAAKEYGNFVIAMGRSKLPIILDENGKPFFGEGYTFEYGKIDVVRKGDDAVIITYGSTLCEAVNAADELKKEGVNVAVLNVSCPVDLDIETLKMVDGKPVLVVEDHNVFTGLGSFLGTTLLENGIIPKKYVRVGVPEFAVSGSYTMLYKLYGLDKDGIISRLREML
notes: full length with C-terminal His6 tag, pET-29:SacB-SapI, E. coli BL21(DE3), Ni-NTA purified
For the protein B1, in series [1], the Michaelis-Menten constant (Km) came to 3.6 ± 0.4 mM, the Vmax stood at 190 µM/min, the kcat is 0.45 ± 0.03 s⁻¹ and the kcat/Km is 126 ± 6 M⁻¹ s⁻¹. For the same protein, in series [2], the Michaelis-Menten constant (Km) was determined as 53.8 ± 4.1 mM, the maximal velocity (Vmax) came to 330 µM/min, the kcat is 0.77 s⁻¹ and the kcat/Km was 14.4 M⁻¹ s⁻¹.
